Strand notation (5' to 3'): a small letter for the sugar, then the base; units joined by * are phosphorothioate-linked, units joined directly phosphodiester-linked; [ ] holds rarer units or linkages, { } end groups; capitals alone tell only the bases. r = 2'-OH (RNA); f = 2'-fluoro
Legend:
[1] = biological target: T1, PDGF-AA (human short form) (Homo sapiens, UniProt P04085); assay: Dot blot binding assay, PDGF-AA human short form; conditions: in the presence of 0.1 mg/mL tRNA
T1 construct: purchased Roche Biomedical
Description: (§1) Dot blot binding assays were performed throughout the selection to monitor the protein binding affinity of the pool. Trace ^32P-labeled RNA was combined with PDGF-AA and incubated at room temperature for 30 min in 1×SHMCK plus 0.1 mg/ml tRNA for a final volume of 20 μl. The reaction was added to a dot blot apparatus (Schleicher and Schuell Minifold-1 Dot Blot, Acrylic), assembled (from top to bottom) with nitrocellulose, nylon, and gel blot membranes. RNA that is bound to protein is captured on the nitrocellulose filter, whereas the non-protein bound RNA is captured on the nylon filter. When a significant positive ratio of binding of RNA in the presence of PDGF-AA versus in the absence of PDGF-AA was seen, the pool was cloned using the TOPO TA cloning kit (Invitrogen, Carlsbad. CA) according to the manufacturer's instructions. The Round 10 pool template was cloned, and 17 sequences were obtained. Only five different sequences were seen, with two major families and one unique sequence (not of the two families). […] Clones with high affinity to PDGF-AA were prepped and screened for functionality in cell-based assays.

[2] = biological target: PDGF-AA (rat) (Rattus norvegicus, UniProt P28576); assay: Dot blot binding assay, PDGF-AA rat; conditions: in the presence of 0.1 mg/mL tRNA
Description: as §1

[3] = biological target: T2, PDGF-AA (Homo sapiens, UniProt P04085); assay: 3T3 proliferation assay (PDGF-AA induced); type: cell-based; conditions: aptamer 0-1 uM, PDGF-AA 50 ng/ml
T2 construct: purchased R&D Systems
Description: The assay was set up as previously described, using a titration of PDGF-AA aptamer (0-1 uM) against a constant concentration (50 ng/ml) of PDGF-AA protein (R&D Systems).

Molecule | PDGF-AA (human short form) Kd (nM) [1] | PDGF-AA (rat) Kd (nM) [2] | Kd [1] [nM] | Kd [2] [nM] | inhibition of PDGF-AA induced 3T3 cell proliferation [3]
ARX33P1.E11: PDGF-AA selection clone, 2′-fluoro pyrimidines (SEQ ID NO: 81) (nucleic acid, aptamer) rGrGrGrArArArArGfCrGrArAfUfCrAfUrAfCrAfCrArArGrArGrArGfUrGrGrArGrGrArGrGfUrAfUrGfUrAfUrGrGfUfUfUrGfUrGfCrGfUfCfUrGrGfUrGfCrGrGfUrGfCfUfCfCrGfCfCrArGrArGrAfCfCrArAfCfCrGrArGrArA | N.B. | N.B. | – | – | –
ARX33P1.D2: PDGF-AA (short form) aptamer, 2′-fluoro pyrimidines (SEQ ID NO: 78) (nucleic acid) rGrGrGrArArArArGfCrGrArAfUfCrAfUrAfCrAfCrArArGrAfCfCrGrGrGrArAfCfUfCrGrGrAfUfUfCfUfUfCrGfCrAfUrGfUrGrGrAfUrGfCrGrAfUfCrArGfUrAfUrGfCfUfCfCrGfCfCrArGrArGrAfCfCrArAfCfCrGrArGrArA | – | – | 104 | 51.7 | do inhibit PDGF-AA induced 3T3 cell proliferation, but are not very potent
ARX33P1.D1: PDGF-AA selection clone, 2′-fluoro pyrimidines (SEQ ID NO: 77) (nucleic acid, aptamer) rGrGrGrArArArArGfCrGrArAfUfCrAfUrAfCrAfCrArArGrAfUfCrGfCfCrArGrGrArGfCrArArArGfUfCrAfCrGrGrArGrGrArGfUrGrGrGrGrGfUrAfCrGrArAfUrGfCfUfCfCrGfCfCrArGrArGrAfCfCrArAfCfCrGrArGrArA | N.B. | N.B. | – | – | –
ARX33P1.E5: PDGF-AA (short form) aptamer, 2′-fluoro pyrimidines (SEQ ID NO: 79) (nucleic acid) rGrGrGrArArArArGfCrGrArAfUfCrAfUrAfCrAfCrArArGrAfCfCrGrGrGrArAfCfUfCrGrGrAfUfUfCfUfUfCrAfCrAfUrGfUrGrGrAfUrGfUrGrAfUfCrArGfUrAfUrGfCfUfCfCrGfCfCrArGrArGrAfCfCrArAfCfCrGrArGrArA | – | – | 117 | 57.4 | do inhibit PDGF-AA induced 3T3 cell proliferation, but are not very potent
ARX33P1.E10: PDGF-AA (short form) aptamer, 2′-fluoro pyrimidines (SEQ ID NO: 80) (nucleic acid) rGrGrGrArArArArGfCrGrArAfUfCrAfUrAfCrAfCrArArGrAfCfCrGrGrArArAfCfUfCrGrGrAfUfUfCfUfUfCrGfCrAfUrGfUrGrGrAfUrGfCrGrAfUfCrArGfUrAfUrGfCfUfCfCrGfCfCrArGrArGrAfCfCrArAfCfCrGrArGrArA | – | – | 133 | 47.1 | do inhibit PDGF-AA induced 3T3 cell proliferation, but are not very potent

From patent US20090053138A1, “Stabilized Aptamers to Platelet Derived Growth Factor and their Use as Oncology Therapeutics” (priority 2002, published 2009)
